T1: human CDH6 with EC3 removed, on HEK293T cells (HEK293T-hCDH6-EC3 deletion) (human, UniProt P55285 54-790)
T1 construct: Signal peptide not removed here
T1 sequence: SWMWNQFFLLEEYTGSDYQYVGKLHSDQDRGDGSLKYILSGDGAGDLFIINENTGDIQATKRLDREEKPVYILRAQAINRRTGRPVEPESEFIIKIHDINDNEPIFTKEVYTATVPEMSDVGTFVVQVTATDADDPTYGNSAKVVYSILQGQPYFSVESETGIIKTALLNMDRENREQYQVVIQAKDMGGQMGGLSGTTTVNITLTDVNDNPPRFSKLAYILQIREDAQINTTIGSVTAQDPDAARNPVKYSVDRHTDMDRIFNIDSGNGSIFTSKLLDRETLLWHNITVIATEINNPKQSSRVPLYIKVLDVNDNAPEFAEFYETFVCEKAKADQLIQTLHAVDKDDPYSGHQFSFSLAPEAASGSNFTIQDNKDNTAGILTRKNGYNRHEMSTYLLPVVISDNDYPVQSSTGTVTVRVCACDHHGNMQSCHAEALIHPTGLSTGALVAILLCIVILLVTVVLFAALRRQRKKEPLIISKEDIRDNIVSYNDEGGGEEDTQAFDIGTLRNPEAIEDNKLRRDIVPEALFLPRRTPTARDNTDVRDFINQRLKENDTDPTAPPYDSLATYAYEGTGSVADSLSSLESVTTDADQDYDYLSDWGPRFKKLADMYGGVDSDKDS

T2: human CDH6 with EC5 removed, on HEK293T cells (HEK293T-hCDH6-EC5 deletion) (human, UniProt P55285 54-790)
T2 construct: Signal peptide not removed here
T2 sequence: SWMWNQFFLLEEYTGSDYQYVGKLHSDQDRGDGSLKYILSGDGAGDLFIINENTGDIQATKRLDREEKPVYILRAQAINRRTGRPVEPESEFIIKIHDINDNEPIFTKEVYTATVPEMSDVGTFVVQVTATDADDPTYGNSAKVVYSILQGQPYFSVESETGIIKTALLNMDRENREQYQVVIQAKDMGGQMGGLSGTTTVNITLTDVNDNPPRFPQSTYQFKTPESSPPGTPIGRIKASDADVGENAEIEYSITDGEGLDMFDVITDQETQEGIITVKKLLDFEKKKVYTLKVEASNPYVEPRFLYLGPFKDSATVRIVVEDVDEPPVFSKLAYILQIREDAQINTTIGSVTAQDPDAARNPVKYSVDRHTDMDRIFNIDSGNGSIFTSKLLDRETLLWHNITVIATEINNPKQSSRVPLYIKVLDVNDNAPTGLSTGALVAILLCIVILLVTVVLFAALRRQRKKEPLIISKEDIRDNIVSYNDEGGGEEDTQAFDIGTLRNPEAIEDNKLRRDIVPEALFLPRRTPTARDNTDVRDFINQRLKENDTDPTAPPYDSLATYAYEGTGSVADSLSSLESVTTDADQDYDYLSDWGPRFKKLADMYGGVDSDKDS

T3: human CDH6 with EC4 removed, on HEK293T cells (HEK293T-hCDH6-EC4 deletion) (human, UniProt P55285 54-790)
T3 construct: Signal peptide not removed here
T3 sequence: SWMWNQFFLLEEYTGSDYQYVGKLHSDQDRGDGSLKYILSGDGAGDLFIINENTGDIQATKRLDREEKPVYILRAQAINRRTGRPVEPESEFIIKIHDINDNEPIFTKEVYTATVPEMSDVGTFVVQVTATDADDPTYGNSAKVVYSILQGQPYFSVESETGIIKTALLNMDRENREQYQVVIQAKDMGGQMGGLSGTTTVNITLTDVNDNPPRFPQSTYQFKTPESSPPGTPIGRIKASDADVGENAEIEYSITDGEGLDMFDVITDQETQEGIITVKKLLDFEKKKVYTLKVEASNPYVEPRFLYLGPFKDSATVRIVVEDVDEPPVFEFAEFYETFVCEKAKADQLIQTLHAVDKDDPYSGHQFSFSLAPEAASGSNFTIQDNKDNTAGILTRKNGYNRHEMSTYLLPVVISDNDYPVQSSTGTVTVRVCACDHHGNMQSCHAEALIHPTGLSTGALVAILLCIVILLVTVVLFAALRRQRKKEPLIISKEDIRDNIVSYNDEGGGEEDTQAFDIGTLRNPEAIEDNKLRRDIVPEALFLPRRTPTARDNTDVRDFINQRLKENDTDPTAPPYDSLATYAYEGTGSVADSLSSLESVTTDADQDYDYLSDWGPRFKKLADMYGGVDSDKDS


Experiments:
[1] = target: T1, human CDH6 with EC3 removed, on HEK293T …; test: FACS, HEK293T-hCDH6-EC3 deletion cells
Source text: (§1) To confirm the binding epitope of the CDH6 antibody, the sequences after removal of these 5 regions were constructed into pcDNA3.1 vectors (purchased from Youbio, Cat. No. VT1001), and transfected into HEK293T cells (purchased from Cell Bank of Chinese Academy of Sciences, Cat. No. SCSP-502) to obtain 5 CDH6 truncated cell lines: HEK293T-hCDH6-EC1 deletion, HEK293T-hCDH6-EC2 deletion, HEK293T-hCDH6-EC3 deletion, HEK293T-hCDH6-EC4 deletion, and HEK293T-hCDH6-EC5 deletion.
(§2) The binding activity of the CDH6 chimeric antibodies to these 5 cell lines was assayed by FACS.

[2] = target: T2, human CDH6 with EC5 removed, on HEK293T …; test: FACS, HEK293T-hCDH6-EC5 deletion cells
Source text: as §1, §2

[3] = target: T3, human CDH6 with EC4 removed, on HEK293T …; test: FACS, HEK293T-hCDH6-EC4 deletion cells
Source text: as §1, §2

Row | Binder | Max MFI [1] [MFI] | Max MFI [2] [MFI] | Max MFI [3] [MFI] | binding result [2] | binding result [1]
1 | CHI-CDH6-12 (antibody, human IgG1, kappa, V domains shown, also called CH1-CDH6-12; chimeric antibody of murine CDH6-12) VH: EVNLVESGGGLVQPGDSLTLSCSASGFTFTDYYMSWVRQFPGKALEWLALIRNKANSYTTEYSASVKGRFTISRDNSQSILYLQMNALRAEDSATYYCARDSYYSHDGFAYWGQGTLVTVSA VL: DIVLTQSPASLAVSLGQRATISCRASKSVSTSSYTYMHWYQQKPGQPPKLLIKFASYLESGVPARFSGSGSGTDFTLNIHPVEEEDAATYYCQHSREFPFTFGTGTKLEIKR | 70 | 4490 | 16600 | – | –
2 | CHI-CDH6-1 (antibody, human IgG1, kappa, V domains shown, also called CHI-hCDH6-1; CH1-CDH6-1) VH: QVQLQQPGAELVRPGSSVKLSCKASGYTFTNYWMHWVKQRPIEGLEWIGDIDPSHSETHYTQKFKDKATLTVDKSSSTAYMQLSSLTSEDSAVYYCARGDLGRFDYWGQGTTLTVSS VL: DIVLTQSPASLAVSLGQRATISCRASESVSIHGTHLMHWYQQKSGQPPKLLIYAASNLESGVPARFSGSGSETDFTFNIHPVEEEDAATYFCQQSFEDPWTFGGGTKLEIKR | 18000 | 14300 | 30000 | – | –
3 | CHI-CDH6-7 (antibody, human IgG1, kappa, V domains shown, also called CH1-CDH6-7; chimeric antibody of murine CDH6-7) VH: EVKLVESGGGLVKPGGSLKVSCAASGFTFSDHGMAWVRQAPGKGPEWVAFISNLAYSIYYADTVTGRFTISRENAKNTLYLEMSSLRSEDTAMYYCARVYVKWYFDVWGAGTTVTVSS VL: DIQMTQSPASLSASVGETVTITCRASENIDSYLAWYQQKQGKSPQLLVFAATLLADGVPSRFSGSGSGTQYSLKINSLQSEDVARYYCQHYYSTPLTFGAGTKLELKR | 9060 | 1020 | 17400 | – | –
4 | CHI-CDH6-4 (antibody, human IgG1, kappa, V domains shown, also called CH1-CDH6-4; chimeric antibody of murine CDH6-4) VH: QVQLQQSGPELVKPGASVKISCKASGYAFSNFWMNWVKQRPGKGLEWIGWIYPGDGDTNYNGKFKDKATLTADKSSSTAYIQLSSLTSEDSAVYFCARLYDAWGFFDYWGQGTTLTVSS VL: QIVLTQSPAIMSASPGQKVTITCSASSSVNYMHWYQQKLGSSPKLWIYDKSKLAPGVPARFSGSGSGTSYSLTISSMEAEDAASYFCHQWSSYPPMTFGGGTKLEIKR | 15100 | 6540 | 22200 | – | –

The next lines start with results.

Row | Max MFI [1] [MFI] | Max MFI [2] [MFI] | Max MFI [3] [MFI] | Binder | binding result [2] | binding result [1]
5 | 16300 | – | 20600 | NOV0712 (antibody, human IgG1, kappa, V domains shown, Positive control, variable regions from WO2018212136A1; also called positive control anti-human CDH6 antibody) VH: QVQLLESGGGLVQPGGSLRLSCAASGFTFSSHGMHWVRQAPGKGLEWVSVISGSGSNTGYADSVKGRFTISRDNSKNTLYLQMNSLRAEDTAVYYCARQWGSYAFDSWGQGTLVTVSS VL: DIQMTQSPSSLSASVGDRVTITCRASQSISSYLNWYQQKPGKAPKLLIYAVSTLQSGVPSRFSGSGSGTDFTLTISSLQPEDFATYYCQQSGTFPPTTFGQGTKVEIKR | no binding (tested: MFI ~1.5 times that of hIgG1 (81)) | –
6 | 12200 | 4240 | 18700 | CHI-CDH6-5 (antibody, human IgG1, kappa, V domains shown, also called CH1-CDH6-5; chimeric antibody of murine CDH6-5) VH: QVQLQQSGAELVRPGTSVKMSCKAAEYTFTNYWIGWVKQRPGHGLEWIGDLYPGGDHANYNEKFEGKATLTADTSSSTAYMQLSSLTSEDSAIYYCARGMLTTGFDSWGQGTTLTVSS VL: DIVMSQSPSSLAVSAGEKVTMSCKSSQSLFNSRTRKNYLAWYQQKPGQSPKLLIYWASTRESGVPDRFTGSGSGTDFTLTISSVQAEDLAVYYCKQSYYLRTFGGGTKLEIKR | – | –
7 | 755 | 4040 | 26600 | CHI-CDH6-14 (antibody, human IgG1, kappa, V domains shown, also called CHI-hCDH6-14; CH1-CDH6-14) VH: QIQLQQSGPELVKPGTSVKISCKASGYTFTDNYINWVRQRPGQGLEWIGWIYPGTGNSYYNEKFKGKATLTVDTSSSTAYMQFSSLTSEDSAVYLCASSYGDSFDYWGQGTTLTVSS VL: DIQMTQTTSSLSASLGNRVTISCRASQDIRNYLNWYQQKPDGTFKLLISYTSRLHSGVPSRFSGSGSGTDYSLTVSNLEPEDIATYYCQQYSQLPWTFGGGSRLEIKR | – | –
8 | – | 1530 | 11800 | DS-H01L02 (antibody, human IgG1, kappa, V domains shown, Positive control, variable regions from WO2018212136A1; also called positive control anti-human CDH6 antibody) VH: EVQLVQSGAEVKKPGASVKVSCKASGYTFTRNFMHWVRQAPGQGLEWMGWIYPGDGETEYAQKFQGRVTITADTSTSTAYMELSSLRSEDTAVYYCARGVYGGFAGGYFDFWGQGTLVTVSS VL: DIQMTQSPSSLSASVGDRVTITCKASQNIYKNLAWYQQKPGKAPKLLIYDANTLQTGVPSRFSGSGSGSDFTLTISSLQPEDFATYFCQQYYSGWAFGQGTKVEIKR | – | no binding (tested: MFI ~1.5 times that of hIgG1 (65))
9 | 689 | 5610 | 16800 | CHI-CDH6-3 (antibody, human IgG1, kappa, V domains shown, also called CH1-CDH6-3; chimeric antibody of murine CDH6-3) VH: QVQLQQPGAELVKPGASVKLSCKASGYTFTSYWIHWVKQRPGQGLEWIGEINPSNGVTNCNENFKSKATLTVDKSSSTAYMQLSSLTSEDSAVYYCTIPNLLWWYFDVWGAGTTVTVSS VL: DIQMTQSPASLSVSVGETVTITCRASENIYSNLAWYQQKQGKSPQLLVYEATNLADGVPSRFSGSGSGTQYSLKINSLQSEDFGSYYCQHFWGTLWTFGGGTKLEIKR | – | –

Source: patent publication US20260234242A1 (HAINAN SIMCERE ZAIMING PHARMACEUTICAL, published 2026)
